What was measured:
[1] = biological target: recombinant his-tagged soluble human IL-11R (human) (UniProt Q14626); assay: SPR; Biacore X100, multi-cycle, NTA sensor chip; his-tagged soluble hIL-6R or hIL-11R immobilised (100-250 RU per cycle); cytokines injected 133.33 to 0.183 nM, 30 uL/min, 180 s, dissociation 800 s; 25 °C, PBS with 0.05% P20 and 50 uM EDTA; two-state reaction fit
[2] = biological target: recombinant his-tagged soluble human IL-6R (human) (UniProt P08887); assay: as above
Chain of recombinant his-tagged soluble human IL-6R (human) (P08887 20-365): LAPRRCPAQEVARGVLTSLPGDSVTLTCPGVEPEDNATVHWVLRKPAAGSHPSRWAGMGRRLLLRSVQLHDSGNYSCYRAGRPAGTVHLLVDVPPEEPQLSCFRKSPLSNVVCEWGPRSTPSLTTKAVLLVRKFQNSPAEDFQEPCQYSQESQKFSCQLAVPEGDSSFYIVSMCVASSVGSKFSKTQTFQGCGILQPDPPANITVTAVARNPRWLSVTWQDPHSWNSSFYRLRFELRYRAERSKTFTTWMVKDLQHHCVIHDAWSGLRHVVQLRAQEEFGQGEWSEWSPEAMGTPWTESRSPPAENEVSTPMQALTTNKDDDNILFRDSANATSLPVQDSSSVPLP

Chain of recombinant his-tagged soluble human IL-11R (human) (Q14626 24-370): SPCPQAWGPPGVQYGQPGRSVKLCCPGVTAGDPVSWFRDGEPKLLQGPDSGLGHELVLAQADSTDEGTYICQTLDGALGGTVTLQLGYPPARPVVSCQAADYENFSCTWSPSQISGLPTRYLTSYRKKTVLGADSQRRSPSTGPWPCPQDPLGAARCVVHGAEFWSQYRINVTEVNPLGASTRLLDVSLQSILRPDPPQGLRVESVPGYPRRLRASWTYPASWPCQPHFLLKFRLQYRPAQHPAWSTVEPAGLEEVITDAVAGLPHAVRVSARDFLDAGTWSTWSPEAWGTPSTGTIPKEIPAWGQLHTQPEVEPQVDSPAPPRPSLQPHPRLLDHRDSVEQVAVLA
Chain of chimeric cytokine IC7, Twin-Strep-tagged (IC7ts) (P05231 30-212, change not shown): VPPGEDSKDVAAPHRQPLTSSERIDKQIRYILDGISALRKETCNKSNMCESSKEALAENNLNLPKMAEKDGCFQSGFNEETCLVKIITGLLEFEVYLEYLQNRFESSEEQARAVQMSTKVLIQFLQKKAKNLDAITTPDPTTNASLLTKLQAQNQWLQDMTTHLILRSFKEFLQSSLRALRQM

A Kd [1] of 48.1 nM, a ka1 (two-state fit, first step) [1] of 59900 M⁻¹ s⁻¹ and a ka2 (two-state fit, second step) [1] of 0.0104 s⁻¹ were found for “chimeric cytokine IC7, Twin-Strep-tagged (IC7ts) (from UniProt P05231 30-212) (ligand)” in this work. It also gave a kd1 (two-state fit, first step) [1] of 0.0193 s⁻¹, a kd2 (two-state fit, second step) [1] of 0.00183 s⁻¹ and a Kd [2] of 6.38 nM. It also gave a ka1 (two-state fit, first step) [2] of 92200 M⁻¹ s⁻¹, a ka2 (two-state fit, second step) [2] of 0.00751 s⁻¹ and a kd1 (two-state fit, first step) [2] of 0.00932 s⁻¹. For the same substance, the kd2 (two-state fit, second step) [2] was 0.000506 s⁻¹.

— article PMC11796321
